Results published in the nanobody polyreactivity screen of Harvey et al. (2022).

Assay: yeast display, Sf9 membrane polyspecificity reagent, FACS + sequencing; frameworks hold sequencing errors
In short: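 Galactose induction of a Saccharomyces cerevisiae BJ5465 synthetic nanobody display library ran 36–48 hours. The cells were then stained for 1 hour at 4 °C with 10% biotinylated, detergent-solubilized Sf9 membrane reagent, pulled down on streptavidin microbeads and FACS-sorted into low and high (top ~1%) gates on expression and reagent-binding fluorescence. Labels for polyreactivity follow the gate of origin.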

| Sequence | polyreactivity (PSR sort gate) |
| --- | --- |
| QVQLVESGGGLVQAGGSLRLSCAASGITFRSYAMGWYRQAPGKERELVAAISSTGRTYYADSVKGRFTISRDNAKNTVYLQMNSLKPEDTAVYYCATGGQGAFWGQGTQVTVSS | high polyreactivity |
| QVHLVESAGGLVQAGGSLRLSSDSSGLIFYRYAMGWYRQAPGKERELVAAITSRSGRTYYADSVKGRFTFSRDNAKNTVYLQMNSLKPEDTAVYYCNAEWRSRYDYWGQGNQVTVSS | high polyreactivity |
| QVQLVESGGGLVQAGGSLRLSCAASGSTFTDYAMGWYRQAPGKERELVASITSGGRTNYADSVKGRFTISRDNAKNTVYLQMNSLKPEDTAVYYCNASAWLVVARTRYGYWGQGTQVTVSS | low polyreactivity |
| QVQLVESGGGLVQAGGSLRLSCAASGRTFPWYVMGWYRQAPGKERELVAAISSGGGKYYADSVKGRFTISRDNAKNTVFLQMNSLKPEDTAVYYCAGRLYYRRSFVREMYYWGQGSQVTVSS | high polyreactivity |
| QVQLVESGGGLVQAGGSLRLSCAASGFTFGSYVMGWYRQAPGKERELVADISIRGGSTYYADSVKGRFTISRDNSKNTVYLQMNSLKPEDTAVYYCAASYFPFNSGRKVGYWGQGTQVTVSS | low polyreactivity |
| QVQLVDSGGGLVQAGGSLRLSCAASGSTIKYYAMGWYRQEPGKERELVAAINWSGDSTYYADSVKGRFTISRDYAKITVYLQKISLKPEDTAVYYCAVRYQKRAYYGSNYWGQGTQVTVSS | high polyreactivity |
| QVQLVESGGGLVQAGGSLRLSCAASGLTFYLYDMGWYRQAPGKERELVAAISRRGTSTYYADSVKGRFTISRDNAKNTVYLQMNSLKPEDTAVYYCAADRKFGRDYWGQGTQVTVSS | high polyreactivity |
| QVQLVESGGGLVEAGGSLRLSCAASGLTFYLYDMGWYRQAPGKERELVAAISRRGTSTYYADSVKGRFTISRDNAKNSVYLQMNSLKPEDTAVYYCAADRKVGRDYWGQGTQVTVSS | high polyreactivity |
| QVQLVESGGGLVQAGGSLRLSCAASGFSFKLYAMGWYRQAPGKEREFVAAINRSGGSTYYADSVKGRFTISRDNAKNTVYLQMNSLKPEDTAVYYCAALAYTLYDYWGQGTQVTVSS | high polyreactivity |
| QDQLVESGGGLDQAGCILRLSCAASGITFSVYTMGWSRQAPGKERELVAANDSDGITNYADSVKGRFTISRDNAKNTDYLQMNSLKPEDTAVYYCNAIADGSSSRWRPYSKFYYWGKGTQVTVSS | low polyreactivity |
| QVQLVESGGGLVNAGGSLRLSCAASGRITGDNAMVWYRQAPGKVRELVAAISTSRRTYYADSVKGRFTISRDNAKNTVYLQMNSLKPEDTAVYYCNAFGSNGGAMDYWGQGTQLTVSS | high polyreactivity |
| QVQLVESGGGLVQAGGSLRLSCAASGFTFRDNAMGWYRQAPGKERELVAAITRGGSTYYADSVKGRFTISRDNAKNTVYLQMNSLKPEDTAVYYCAKALYRREYSSGGYYRFDYWGQGTQVTVSS | high polyreactivity |
| QVQLLESGGGLGQAGGSLRLSCAASGSILSINGMGWYRQAPGKERELVATIDGSDGSTFYADSVKGRFTISRDNAKNTVYLQMNSQKPEDTAVYYCAAENFWQTKEYDYWGQGTQVTVSS | low polyreactivity |
| QVQLVESGGGLVQAGGSLRLSCAASGSTFGGYAMGWYRQAPGKERELVAAITWSGDTYYADSVKGRFTISRDYAKNTVYLQMNSLKPEDTAVYYCAASYLGFHMSYDYWGQGTQVNVSS | high polyreactivity |
| QVQLVESGGGLVQAGGSLRLSCAASGSIFITNAMGWYRQAPGKERELVAAISGRGGSTYSADSVKGRFTISRDNAKNTVYLQMNSLKPEDTAVYYCNAYSYRVSGYDYWGQGTQVTVSS | high polyreactivity |
| QVQLVESGGGLVQAGGSLRLSCAASGSTLYTYAMGWYRQAPGKERELVAAISYTGGRTYYADSVKGRFTISRDNAKNTVYLQMNSLKPEDTAVYYCAARFKSVGYDYWGQGTQVTVSS | high polyreactivity |

| Sequence | polyreactivity (PSR sort gate) |
| --- | --- |
| QVQLVESGGGLVQAGGSLRLSCAASGFTFTYNTMGWYRQAPGKEREMVAAISSTGGSTYYADSVKGRFTISRDNAKNTVYLQMNSLKPEDTAVYYCNACLPFSGRKRYGYWGQGTQVTVSS | high polyreactivity |
| QVQLQESGGGLVQADGSLRLSCAASGSIIGYYYMGWYRQAPGKDRELVATINNCGITNYADSVKGLFTISRDNAKNTVYLQMNSLKPDDTAVYYCAADEYAQRDLGYWGQGTQVTVSN | low polyreactivity |
| QVQLVESGGGLVQAGGSLRLSCAASGRTFVPNAMGWYRQAPGKERELVARISSGDSTYYADSVKGRFTISRDNAKNTVYLQMNSLKPEDTAVYYCAASGRQNGYGRRQYYYWGQGTQVTVSS | high polyreactivity |
| QVQLVESGVGLVQAGGSLRLSCAASGRIFYPYAMGWYRQAPGKERELDAVINGSGGSTYYADSVKGRFTISRDYAKNTVYLQMNSLKPEDTAVYYCARVWSRRYGGWYRNYYWGQGTQVTVSS | high polyreactivity |
| QVQLVESGGGLVQAGGSLRLSCAASGFIFETNAMGWYRQAPGKERELVAAISSRGGSTYYADSVKGRFTISRDNAKNTVYLQMNSLKPEDTAVYYCAAKLVVSYGQEYDYWGQGTHVTVSS | low polyreactivity |
| QVQLVESGGGLVQAGGSLRLSCAASGSTFGSNAMGWYRQAPGKERELVAAIRGIVGSTYYADSVKGRFTISRDNAKNTVYLQMNSLKPEDTAVYYCNKAEVSTYYQTRSTYGGYDYWGQGTQVTVSS | low polyreactivity |
| QVQLVESGGGLVQAGGSLRLTCAASGSTFQVNDMGWYRQAPGKDRELLASISGGSSTNYADSVKGRFTISRDNAKNTVYLQMHSLQPEDTAVYYCAAYYLSGLRVAYDYWGQGPQVTVSS | low polyreactivity |
| QVQLVESGGGLVQAGGSLRLSCAASGRTFGINAMGWYRQAHGKERELVAVISFGDGGTYYADSVKGRFTISRDNAKNTVYLQMNSLKPEDTAVYYCATDYQSTSVWGGHFVINPYDYWGQGTQVTVSS | low polyreactivity |
| QVQLVESGGGLVQAGGRLRLSCAASGRIFSDYAMGWYRQAPGKERELVAVITRGGDNTHYADSVKGRFSISRDNAKNTVYLQMNSLKAEDTAVYYCAAGFVYFRLRRYFWRDYCGQGTQVTVSS | low polyreactivity |
| QVQLVESGGGLVQAGGSLRLSCAASGRTFDYNAMVWYRQAPGKERELVAAISGSGTRTFYADSVKGRFTISRDNAKNTVYLLMNSLKPVDTAVYYCAASHGWSKSIFYYWGQGTQVTVSS | high polyreactivity |
| QVQHVESGGGIVQAGGSLRLSCAASVRTIPYNAMGRYRQAPGKERELVAAISTGGSTNYADSVKGRFTISRDNAKNTVYLQMNSLKPEDTAVYYCNTRYRWARNWAYYYWGQGTQVTVSS | high polyreactivity |
| QVQLVESGGGLVHAGGSLRLSCYATGIILDRYTMGWYRQAPATERELVAAISRSGGITYYADSVKGRFTISRDNAKNTVYLQMNSLKQEDTAVYYCAAKYFDHRQTAYEYWGQGTHVTVSS | high polyreactivity |
| QVQLVESGGGLVQAGGSLRLSCAASGSTIRYYAMGWYRQAPGKERELLAAITKSGGSTYYADSVKGRFTISRDNAKNTVYLQMNSLKPEDTAVYFCAAVRRWYYPALSEHDYCGQGTQVTVSS | low polyreactivity |
| QVQLVESGGGLVQAGGSLRLSCAASGSIFWFNAMGWYRQAPGKERELVAAIRRIGGSTYYADSVKGRFTISRDNAKNTVYLQMNSLKPEDTAVYYCAAGVTFRGASYGYWGQGTQVTVSS | high polyreactivity |
| QVQLVETGGGLVQAGGSLRLSCAASGSIFVYHAMGGYRQAPGKETEFVAVISNSGSRTYYADSVKGRFTISRDNAKNTVYLQMNSLKPEDTAVYYCAARYYYFQRAYDYWGQGTQVTVSS | high polyreactivity |
| QVQLVESGGGLVQAGGSLRLSCAASGRIFTGNVMGWYRQAPGKERELFAAISYGGGSTNYADSVKGRFTISRDNAKNTVYLQMNSLKPEDTAVYYCAAGIKRYLSYYTRYGYWGQGTQVTVSS | high polyreactivity |
